Results reported in patent US20040265963A1 (UNIVERSITY OF FLORIDA RESEARCH FOUNDATION, published 2004).
Ends that are not written are not given here. * marks the point of attachment. Biotin = O=C1N[C@H]2[C@H](CS[C@H]2CCCCC(=O)*)N1

How the values were obtained:
Experiment in all cases: ELISA, biotinylated JAK2 WT on plate-coated control peptide (FIG. 1A)
[1] = target: T1, VEGFR peptide (vascular endothelial growth factor receptor autophosphorylation peptide VEGFR 1208-1222)
T1 construct: Control peptide
T1 peptide: SSDVRYVNAFKFM

MuIFN-γ(95-125) peptide = target: T2, MuIFN-γ(95-125) peptide (murine)
T2 construct: Control peptide; numbering is on the mature form of murine IFN-γ
T2 peptide: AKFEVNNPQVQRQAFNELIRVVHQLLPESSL

[2] = target: T3, CDK-2 cyclin box peptide (cyclin-dependent kinase, cyclin box peptide 41-61)
T3 construct: Control peptide; also called CDK 41-61
T3 peptide: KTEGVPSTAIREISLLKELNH

Measured: binding result

B1: biotinylated JAK2 WT peptide (JAK2 autophosphorylation peptide, residues 1001-1013, LPQDKEYYKVKEP) (peptide)
peptide: Biotin-LPQDKEYYKVKEP
notes: Synthetic peptide, biotin incorporated at the N-terminus during synthesis; not phosphorylated at Y1007; also called wild type JAK2 peptide; unphosphorylated JAK2 WT
no binding: [1] | MuIFN-γ(95-125) peptide | [2]
